Reference: the supplement of paper PMC9876800

Test system: peptide library, one residue held at a place counted from the S/T acceptor
Assay: relative phosphorylation of the sub-library (ratio to the mean residue at this position); higher = residue favoured
Settings: human
Procedure, shortened: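 Relative sub-library phosphorylation, a ratio to the mean residue at that position, was obtained by phosphorimaging and densitometry of spots on streptavidin membranes. Before capture, purified recombinant kinases were incubated for 90 min under kinase-specific conditions with 50 μM biotinylated degenerate peptide sub-libraries and 50 μM ATP spiked with γ-32P-ATP. Each sub-library fixed one residue at one position around a central Ser/Thr.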

Chain of SNRK, construct: aa1-505 (Q9NRH2 1-505, looked up): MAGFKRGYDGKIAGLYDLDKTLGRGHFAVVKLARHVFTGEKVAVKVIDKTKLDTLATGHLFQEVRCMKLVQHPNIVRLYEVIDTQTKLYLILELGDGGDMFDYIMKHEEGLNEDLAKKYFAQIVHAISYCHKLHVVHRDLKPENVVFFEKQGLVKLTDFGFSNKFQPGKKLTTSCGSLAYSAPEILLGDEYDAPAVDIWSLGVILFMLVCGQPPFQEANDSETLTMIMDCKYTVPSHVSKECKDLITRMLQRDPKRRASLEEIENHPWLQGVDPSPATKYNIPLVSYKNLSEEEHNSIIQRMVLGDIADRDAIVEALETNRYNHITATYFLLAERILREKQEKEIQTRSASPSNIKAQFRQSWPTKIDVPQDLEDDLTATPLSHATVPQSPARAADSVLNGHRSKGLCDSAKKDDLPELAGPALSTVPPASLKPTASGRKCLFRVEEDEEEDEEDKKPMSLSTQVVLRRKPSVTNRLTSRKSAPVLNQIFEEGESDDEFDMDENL
Chain of PHKG2, construct: aa6-293 (P15735 6-293, looked up): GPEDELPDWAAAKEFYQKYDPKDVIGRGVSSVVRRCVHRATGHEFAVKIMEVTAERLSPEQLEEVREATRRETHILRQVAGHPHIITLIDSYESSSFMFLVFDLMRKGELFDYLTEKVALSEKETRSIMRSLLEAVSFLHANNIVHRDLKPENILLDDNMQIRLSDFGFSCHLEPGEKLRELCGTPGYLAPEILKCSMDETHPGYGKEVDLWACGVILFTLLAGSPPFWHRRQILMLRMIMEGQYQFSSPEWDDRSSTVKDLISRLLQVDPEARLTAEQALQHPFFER

PHKG2, construct: aa6-293 (from UniProt P15735)
relative phosphorylation
Settings	at +1	at +2	at +3	at +4	at -1	at -2	at -3	at -4	at -5
A fixed	0.436	0.632	0.881	0.674	0.927	0.973	0.741	0.731	0.93
D fixed	0.155	0.214	0.222	0.297	0.609	0.353	0.242	0.326	0.364
E fixed	0.198	0.157	0.301	0.246	0.389	0.466	0.3	0.561	0.38
F fixed	2.96	1.28	1.04	1.21	1.07	0.891	0.368	0.797	1.1
G fixed	0.369	0.579	0.828	0.774	0.977	0.985	0.578	0.833	0.768
H fixed	0.681	1.43	1.12	0.916	0.871	0.867	0.899	1.15	0.999
I fixed	1.63	0.694	0.929	0.743	0.772	0.711	0.562	1.19	1.16
K fixed	0.664	2.43	1.79	1.95	1.84	1.5	3.76	1.84	1.73
L fixed	1.72	0.642	0.976	1.06	0.888	0.853	0.454	0.991	1.26
M fixed	1.77	0.757	0.974	0.885	0.987	1.12	0.576	1.13	0.958
N fixed	0.403	0.694	0.792	0.753	1.15	1.13	0.538	0.849	0.761
P fixed	0.107	0.267	0.616	0.556	1.11	0.528	0.422	0.587	0.706
Q fixed	0.593	0.601	0.851	1.02	0.917	1.72	0.77	0.878	0.776
R fixed	0.997	3.32	2.61	2.71	1.84	2.48	5.1	1.98	1.85
V fixed	0.896	0.574	0.856	0.719	0.9	0.778	0.477	0.922	1.15
W fixed	2.03	1.56	1.2	1.48	0.751	0.861	0.556	0.996	0.926
Y fixed	1.4	1.16	1.01	1.01	0.998	0.795	0.663	1.23	1.19
pThr fixed	0.353	0.302	0.378	0.285	0.558	0.0668	0.449	0.505	0.678
pTyr fixed	0.404	0.369	0.462	0.307	0.755	0.637	0.517	0.746	0.63

MAP3K2, construct: Full length (from UniProt Q9Y2U5)
relative phosphorylation
Settings	at +1	at +2	at +3	at +4	at -1	at -2	at -3	at -4	at -5
A fixed	1.01	0.873	0.802	1.04	1.04	1.2	0.975	1.07	1.12
D fixed	0.302	0.413	0.63	0.567	1.08	1.6	1.61	1.5	1.37
E fixed	0.296	0.344	0.477	0.691	0.935	0.953	1.53	1.43	1.16
F fixed	0.82	0.696	1.46	0.775	0.673	1.1	0.782	1.01	0.923
G fixed	0.868	0.663	0.865	0.981	1.41	1.27	1.65	1.23	1.22
H fixed	0.954	2.2	1.06	0.983	1.36	1.1	0.891	1.02	1.06
I fixed	1.59	0.632	1.09	0.877	0.549	0.82	0.608	0.73	0.828
K fixed	0.721	1.51	1.09	1.9	1.19	0.765	0.988	0.946	1.07
L fixed	1.29	0.694	1.16	0.918	0.904	0.704	0.698	0.749	0.743
M fixed	1.82	1.02	1.1	0.947	1.11	0.866	0.937	0.898	0.869
N fixed	0.614	0.902	0.914	0.703	1.17	0.829	1.08	0.96	0.883
P fixed	0.409	0.403	0.574	1.25	0.643	0.838	1.03	1.02	0.992
Q fixed	1.02	1	0.905	1.12	1.11	0.853	0.817	0.793	0.751
R fixed	1.09	1.94	1.32	1.68	1.39	0.757	1.18	0.978	0.95
V fixed	1.46	0.828	0.856	0.816	0.726	0.979	0.698	0.849	1.02
W fixed	1.81	0.986	1.51	0.909	0.662	0.919	0.747	0.952	1.08
Y fixed	0.926	1.89	1.2	0.853	1.04	1.46	0.778	0.868	0.959
pThr fixed	0.643	0.47	0.597	0.761	0.708	1.3	1.91	1.23	1.59
pTyr fixed	0.42	0.412	0.645	0.546	1.08	2.07	1.3	1	1.21

RAF1, construct: aa306-648 (from UniProt P04049)
relative phosphorylation
Settings	at +1	at +2	at +3	at +4	at -1	at -2	at -3	at -4	at -5
A fixed	0.533	0.747	0.856	0.786	1.02	0.816	0.961	0.949	1.05
D fixed	0.619	0.926	0.751	0.848	1.47	0.702	0.845	1.36	1.19
E fixed	0.992	0.886	0.697	0.864	0.969	0.718	0.898	1.24	1.29
F fixed	1.25	0.618	1.36	1.23	0.587	1.25	0.8	0.698	0.914
G fixed	0.719	1.13	1.05	0.823	1.07	0.675	1.06	1.09	0.997
H fixed	0.672	1.08	1.06	1.13	1.52	1.29	1.08	1.13	1.18
I fixed	1.66	1.03	0.787	0.958	0.647	1.27	0.755	0.65	0.731
K fixed	0.544	1.15	0.73	0.985	1.14	0.9	1.36	1.11	1.35
L fixed	2.37	1	1.19	1.05	0.852	0.939	1.22	0.793	0.848
M fixed	1.78	0.846	0.963	0.966	1.09	1.02	1.07	0.835	0.788
N fixed	0.692	1.32	0.999	1.08	1.29	0.784	0.832	1.27	1.13
P fixed	0.281	1.23	0.912	0.983	0.735	1.1	0.797	0.772	1.03
Q fixed	0.762	1.22	0.892	1.06	0.93	0.846	0.996	0.878	0.86
R fixed	0.667	1.49	0.776	0.944	1.39	1.37	1.83	0.911	1.09
V fixed	0.938	1.12	0.81	0.793	0.59	1.14	0.661	0.616	0.681
W fixed	1.44	0.58	1.61	1.3	0.805	0.932	0.94	1.91	1.02
Y fixed	1.08	0.631	1.56	1.19	0.891	1.26	0.89	0.791	0.855
pThr fixed	1.05	1.62	0.758	0.819	0.77	1.06	1.1	1.24	0.992
pTyr fixed	0.626	0.898	0.911	0.692	1.61	1.72	1.07	0.994	0.98

SNRK, construct: aa1-505 (from UniProt Q9NRH2)
relative phosphorylation
Settings	at +1	at +2	at +3	at +4	at -1	at -2	at -3	at -4	at -5
A fixed	0.817	0.313	0.573	0.725	0.876	1.27	0.886	1.12	1.07
D fixed	0.421	0.215	0.614	0.532	0.73	0.301	0.279	0.572	0.568
E fixed	0.544	0.156	0.303	0.474	0.899	0.344	0.267	0.65	0.514
F fixed	1.81	3.56	2.34	1.08	0.944	1.31	0.898	0.944	1.27
G fixed	0.424	0.196	0.608	0.721	0.813	0.721	0.617	1.06	0.957
H fixed	0.863	0.998	1.16	0.969	1.1	1.47	1.04	1.15	1.1
I fixed	0.829	0.912	0.61	1.16	0.811	0.587	0.631	0.861	0.921
K fixed	1.09	0.431	0.691	1	1.06	1.12	1.99	1.42	1.31
L fixed	1.05	1.36	0.88	1.78	1.3	0.616	0.9	0.94	0.815
M fixed	1.4	1.34	0.934	1.18	1.31	0.91	0.979	1.03	0.937
N fixed	0.916	0.5	1.11	0.965	0.864	1.11	0.654	0.824	0.883
P fixed	0.171	0.276	0.354	1.02	0.823	0.426	0.613	0.748	0.807
Q fixed	1.35	0.567	0.661	1.16	1.08	1.14	0.908	0.942	0.89
R fixed	1.63	0.865	1.1	1.06	1.45	2.44	4.04	1.5	1.69
V fixed	0.936	0.585	0.531	0.924	0.93	0.78	0.498	0.911	0.996
W fixed	1.27	2.4	2.19	1.29	0.964	1.11	0.952	1.18	1.23
Y fixed	1.48	2.32	2.35	0.952	1.05	1.34	0.85	1.15	1.05
pThr fixed	0.702	0.42	0.371	0.477	0.913	0.613	0.526	0.7	0.726
pTyr fixed	0.777	0.522	0.548	0.425	1.03	0.512	0.522	0.735	0.73
